Literature values in publication PMC3721222.
Like-named read-outs stand apart in the source and are kept apart here.

Tests used:
Trypsin (Bos taurus) [1] = target: Trypsin (Bos taurus) (UniProt P00760)
[2] = target: Chymotrypsin (Bos taurus) (UniProt P00766)
Trypsin (Bos taurus) [3] = target: Trypsin (Bos taurus) (UniProt P00760); remark: listed apart in the source
[4] = target: Neutrophil elastase (Homo sapiens) (UniProt P08246)
[5] = target: Chymotrypsin (Bos taurus) (UniProt P00766); remark: listed apart in the source
Plasmin (Homo sapiens) [6] = target: Plasmin (Homo sapiens) (UniProt P00747)
UniProt P00747, sequence (P00747 581-810): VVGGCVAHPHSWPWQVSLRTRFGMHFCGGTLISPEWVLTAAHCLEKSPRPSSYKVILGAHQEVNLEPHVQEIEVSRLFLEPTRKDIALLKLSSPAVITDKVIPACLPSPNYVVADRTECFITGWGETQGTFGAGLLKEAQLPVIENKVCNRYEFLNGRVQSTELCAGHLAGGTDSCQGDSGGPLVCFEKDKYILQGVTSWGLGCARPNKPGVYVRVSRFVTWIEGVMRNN

Trypsin (Bos taurus) [7] = target: Trypsin (Bos taurus) (UniProt P00760); remark: listed apart in the source
[8] = target: Chymotrypsin (Bos taurus) (UniProt P00766); remark: listed apart in the source
Plasmin (Homo sapiens) [9] = target: Plasmin (Homo sapiens) (UniProt P00747); remark: listed apart in the source
Plasmin (Homo sapiens) [10] = target: Plasmin (Homo sapiens) (UniProt P00747); remark: listed apart in the source
[11] = target: Chymotrypsin (Bos taurus) (UniProt P00766); remark: listed apart in the source
Trypsin (Bos taurus) [12] = target: Trypsin (Bos taurus) (UniProt P00760); remark: listed apart in the source
Trypsin (Bos taurus) [13] = target: Trypsin (Bos taurus) (UniProt P00760); remark: listed apart in the source
[14] = target: Chymotrypsin (Bos taurus) (UniProt P00766); remark: listed apart in the source
Trypsin (Bos taurus) [15] = target: Trypsin (Bos taurus) (UniProt P00760); remark: listed apart in the source
[16] = target: Chymotrypsin (Bos taurus) (UniProt P00766); remark: listed apart in the source
Trypsin (Bos taurus) [17] = target: Trypsin (Bos taurus) (UniProt P00760); remark: listed apart in the source
[18] = target: Chymotrypsin (Bos taurus) (UniProt P00766); remark: listed apart in the source
[19] = target: Pancreatic elastase (Sus scrofa) (UniProt P00772)
UniProt P00772, sequence (P00772 27-266): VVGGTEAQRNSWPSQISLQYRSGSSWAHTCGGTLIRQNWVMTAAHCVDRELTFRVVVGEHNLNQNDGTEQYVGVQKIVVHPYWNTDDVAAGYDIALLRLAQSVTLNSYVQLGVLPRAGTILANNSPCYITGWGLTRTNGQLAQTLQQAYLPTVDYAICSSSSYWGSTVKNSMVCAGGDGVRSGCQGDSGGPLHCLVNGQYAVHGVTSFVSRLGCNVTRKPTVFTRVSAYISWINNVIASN

[20] = target: Leukocyte elastase (Homo sapiens) (UniProt P08246)
Cathepsin L = Cathepsin L (UniProt P07711)
UniProt P07711, sequence (P07711 114-288, chain 1 of 2): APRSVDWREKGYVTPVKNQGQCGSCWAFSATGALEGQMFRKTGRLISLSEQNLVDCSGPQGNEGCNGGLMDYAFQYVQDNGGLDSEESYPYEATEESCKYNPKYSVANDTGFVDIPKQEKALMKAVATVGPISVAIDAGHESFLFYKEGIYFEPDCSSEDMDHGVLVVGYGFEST
UniProt P07711, sequence (P07711 292-333, chain 2 of 2): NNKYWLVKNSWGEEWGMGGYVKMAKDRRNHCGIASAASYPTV

Papain (Carica papaya) [21] = target: Papain (Carica papaya) (UniProt P00784)
UniProt P00784, sequence (P00784 134-345): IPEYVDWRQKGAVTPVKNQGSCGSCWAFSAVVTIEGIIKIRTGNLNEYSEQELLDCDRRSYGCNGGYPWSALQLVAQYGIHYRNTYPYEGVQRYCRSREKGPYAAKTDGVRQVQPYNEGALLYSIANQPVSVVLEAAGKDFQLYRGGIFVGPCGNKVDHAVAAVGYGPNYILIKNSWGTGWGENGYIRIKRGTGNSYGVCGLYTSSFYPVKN

Cathepsin B = Cathepsin B (UniProt P07858)
Papain (Carica papaya) [22] = target: Papain (Carica papaya) (UniProt P00784); remark: listed apart in the source
Cathepsin D = Cathepsin D (UniProt P07339)
UniProt P07339, sequence (P07339 65-412): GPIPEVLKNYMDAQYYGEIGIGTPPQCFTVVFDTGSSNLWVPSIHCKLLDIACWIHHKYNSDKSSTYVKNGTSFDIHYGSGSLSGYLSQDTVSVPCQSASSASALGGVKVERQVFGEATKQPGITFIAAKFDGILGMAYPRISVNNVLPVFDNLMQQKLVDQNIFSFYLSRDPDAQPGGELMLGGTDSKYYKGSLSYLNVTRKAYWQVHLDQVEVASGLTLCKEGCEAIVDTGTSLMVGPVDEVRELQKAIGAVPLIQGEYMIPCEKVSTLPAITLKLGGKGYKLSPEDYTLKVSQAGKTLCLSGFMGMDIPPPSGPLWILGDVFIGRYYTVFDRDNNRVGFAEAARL

Trypsin (Bos taurus) [23] = target: Trypsin (Bos taurus) (UniProt P00760); remark: listed apart in the source
Trypsin (Bos taurus) [24] = target: Trypsin (Bos taurus) (UniProt P00760); remark: listed apart in the source
Trypsin (Bos taurus) [25] = target: Trypsin (Bos taurus) (UniProt P00760); remark: listed apart in the source
Trypsin (Bos taurus) [26] = target: Trypsin (Bos taurus) (UniProt P00760); remark: listed apart in the source
[27] = target: Chymotrypsin (Bos taurus) (UniProt P00766); remark: listed apart in the source
Trypsin (Bos taurus) [28] = target: Trypsin (Bos taurus) (UniProt P00760); remark: listed apart in the source
[29] = target: Chymotrypsin (Bos taurus) (UniProt P00766); remark: listed apart in the source
Trypsin (Bos taurus) [30] = target: Trypsin (Bos taurus) (UniProt P00760); remark: listed apart in the source
Metalloprotease 2 = Metalloprotease 2 (UniProt P08253)
UniProt P08253, sequence (P08253 110-660): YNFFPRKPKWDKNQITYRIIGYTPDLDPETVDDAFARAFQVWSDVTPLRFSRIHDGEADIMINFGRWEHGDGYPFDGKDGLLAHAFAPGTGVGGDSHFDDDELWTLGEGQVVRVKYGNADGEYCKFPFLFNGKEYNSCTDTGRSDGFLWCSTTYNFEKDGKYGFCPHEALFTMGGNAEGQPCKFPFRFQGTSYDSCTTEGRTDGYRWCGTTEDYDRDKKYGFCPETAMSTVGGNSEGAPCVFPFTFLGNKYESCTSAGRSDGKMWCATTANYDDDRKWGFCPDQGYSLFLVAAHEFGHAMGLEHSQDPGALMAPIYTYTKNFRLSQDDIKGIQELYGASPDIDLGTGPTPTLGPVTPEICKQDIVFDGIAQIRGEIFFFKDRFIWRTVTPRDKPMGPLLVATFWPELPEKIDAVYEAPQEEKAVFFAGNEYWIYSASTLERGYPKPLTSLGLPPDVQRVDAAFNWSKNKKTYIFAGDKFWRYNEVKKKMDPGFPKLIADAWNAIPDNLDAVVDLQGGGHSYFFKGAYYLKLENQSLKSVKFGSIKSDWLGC

Trypsin (Bos taurus) [31] = target: Trypsin (Bos taurus) (UniProt P00760); remark: listed apart in the source
[32] = target: Chymotrypsin (Bos taurus) (UniProt P00766); remark: listed apart in the source
Plasmin (Homo sapiens) [33] = target: Plasmin (Homo sapiens) (UniProt P00747); remark: listed apart in the source
Trypsin (Bos taurus) [34] = target: Trypsin (Bos taurus) (UniProt P00760); remark: listed apart in the source
Plasmin (Homo sapiens) [35] = target: Plasmin (Homo sapiens) (UniProt P00747); remark: listed apart in the source
Kv1.2 = Kv1.2 (UniProt P16389)
UniProt P16389, sequence (P16389 whole entry): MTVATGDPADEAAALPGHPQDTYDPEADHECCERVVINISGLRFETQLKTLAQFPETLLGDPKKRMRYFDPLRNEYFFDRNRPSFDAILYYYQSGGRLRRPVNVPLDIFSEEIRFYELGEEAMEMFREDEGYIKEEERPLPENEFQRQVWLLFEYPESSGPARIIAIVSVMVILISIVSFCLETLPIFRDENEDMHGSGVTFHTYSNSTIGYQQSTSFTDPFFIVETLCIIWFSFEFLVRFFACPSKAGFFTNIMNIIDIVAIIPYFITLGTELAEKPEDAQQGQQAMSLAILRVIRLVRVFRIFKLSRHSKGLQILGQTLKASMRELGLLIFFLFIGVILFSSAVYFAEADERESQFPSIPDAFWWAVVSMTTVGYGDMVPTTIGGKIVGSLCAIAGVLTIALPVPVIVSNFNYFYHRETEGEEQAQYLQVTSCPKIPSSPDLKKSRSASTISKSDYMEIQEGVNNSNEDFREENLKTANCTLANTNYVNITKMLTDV

Kv1.6 = Kv1.6 (UniProt P17658)
UniProt P17658, sequence (P17658 whole entry): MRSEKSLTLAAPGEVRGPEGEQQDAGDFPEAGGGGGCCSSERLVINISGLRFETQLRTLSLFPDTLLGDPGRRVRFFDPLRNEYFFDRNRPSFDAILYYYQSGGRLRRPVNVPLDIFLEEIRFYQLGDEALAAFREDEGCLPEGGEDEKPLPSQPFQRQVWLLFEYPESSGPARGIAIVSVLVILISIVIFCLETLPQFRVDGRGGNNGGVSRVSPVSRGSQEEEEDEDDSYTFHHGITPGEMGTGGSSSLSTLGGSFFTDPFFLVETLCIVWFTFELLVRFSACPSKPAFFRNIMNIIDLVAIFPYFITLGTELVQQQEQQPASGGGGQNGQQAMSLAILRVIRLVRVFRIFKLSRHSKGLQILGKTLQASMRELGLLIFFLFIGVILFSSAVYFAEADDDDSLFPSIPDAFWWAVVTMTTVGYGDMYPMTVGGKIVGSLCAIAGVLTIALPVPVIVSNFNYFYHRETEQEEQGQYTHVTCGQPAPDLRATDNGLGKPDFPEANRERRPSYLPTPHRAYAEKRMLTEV

Kv1.1 = Kv1.1 (UniProt Q09470)
UniProt Q09470, sequence (Q09470 whole entry): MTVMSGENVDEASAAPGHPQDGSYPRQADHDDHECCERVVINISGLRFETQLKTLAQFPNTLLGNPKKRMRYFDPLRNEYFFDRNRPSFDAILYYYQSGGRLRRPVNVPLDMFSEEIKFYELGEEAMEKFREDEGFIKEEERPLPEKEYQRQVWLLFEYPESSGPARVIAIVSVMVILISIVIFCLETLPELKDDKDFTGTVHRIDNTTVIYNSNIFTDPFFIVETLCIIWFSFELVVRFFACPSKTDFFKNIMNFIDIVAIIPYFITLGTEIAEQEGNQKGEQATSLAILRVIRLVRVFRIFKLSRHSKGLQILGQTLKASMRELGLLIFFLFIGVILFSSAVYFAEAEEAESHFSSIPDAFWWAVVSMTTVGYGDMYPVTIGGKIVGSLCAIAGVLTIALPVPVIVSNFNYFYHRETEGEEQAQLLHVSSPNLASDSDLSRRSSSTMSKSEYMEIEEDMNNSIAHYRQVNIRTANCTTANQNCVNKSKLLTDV

Trypsin (Bos taurus) [36] = target: Trypsin (Bos taurus) (UniProt P00760); remark: listed apart in the source
[37] = target: Chymotrypsin (Bos taurus) (UniProt P00766); remark: listed apart in the source
Trypsin (Bos taurus) [38] = target: Trypsin (Bos taurus) (UniProt P00760); remark: listed apart in the source
Trypsin (Bos taurus) [39] = target: Trypsin (Bos taurus) (UniProt P00760); remark: listed apart in the source
Trypsin (Bos taurus) [40] = target: Trypsin (Bos taurus) (UniProt P00760); remark: listed apart in the source
Trypsin (Bos taurus) [41] = target: Trypsin (Bos taurus) (UniProt P00760); remark: listed apart in the source
Trypsin (Bos taurus) [42] = target: Trypsin (Bos taurus) (UniProt P00760); remark: listed apart in the source
Trypsin (Bos taurus) [43] = target: Trypsin (Bos taurus) (UniProt P00760); remark: listed apart in the source
Trypsin (Bos taurus) [44] = target: Trypsin (Bos taurus) (UniProt P00760); remark: listed apart in the source

UniProt P00760, sequence (P00760 149-246): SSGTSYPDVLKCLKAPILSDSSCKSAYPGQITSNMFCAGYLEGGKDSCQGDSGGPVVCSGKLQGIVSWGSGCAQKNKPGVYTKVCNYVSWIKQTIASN

**Q.** Which Kd (Trypsin (Bos taurus) [1]) does the source give for APHC1 (from UniProt B2G331) here?
**A.** 1000 nM

**Q.** What about the Kd [2] of the same substance?
**A.** 5000 nM

**Q.** With Albumin-1 (from UniProt Q3T478) as the substance, how does the Kd (Trypsin (Bos taurus) [3]) read?
**A.** 1.92 nM

**Q.** With AvKTI (from UniProt Q8T3S7) as the substance, how does the Ki [4] read?
**A.** 169 nM

**Q.** And the Ki [5]?
**A.** 37.8 nM

**Q.** And the Ki (Plasmin (Homo sapiens) [6])?
**A.** 4.89 nM

**Q.** What about the Ki (Trypsin (Bos taurus) [7]) of the same substance?
**A.** 7.34 nM

**Q.** Which Kd [8] does the source give for BF9 (from UniProt P25660) here?
**A.** 58 nM

**Q.** For Bi-KTI (from UniProt G3LH89), which Ki (Plasmin (Homo sapiens) [9]) is on record?
**A.** 3.6 nM

**Q.** For Bt-KTI (from UniProt D8KY58), which Ki (Plasmin (Homo sapiens) [10]) is on record?
**A.** 2.01 nM

**Q.** With Bungaruskunin (from UniProt B2KTG1) as the substance, how does the Ki [11] read?
**A.** 6100 nM

**Q.** Which Ki (Trypsin (Bos taurus) [12]) does the source give for CBPTI-1 (from UniProt A8Y7N4) here?
**A.** 407 nM

**Q.** For CBPTI-2 (from UniProt A8Y7N5), which Ki (Trypsin (Bos taurus) [13]) is on record?
**A.** 666 nM

**Q.** With CBPTI-3 (from UniProt A8Y7N6) as the substance, how does the Ki [14] read?
**A.** 2.55 nM

**Q.** Which Ki (Trypsin (Bos taurus) [15]) does the source give for “Chymotrypsin inhibitor (from UniProt P00992)” here?
**A.** 5100 nM

**Q.** What about the Ki [16] of the same substance?
**A.** 4.3 nM

**Q.** Which results are given for Dendrotoxin E (from UniProt P00984)?
**A.** Kd (Trypsin (Bos taurus) [17]): 1 nM; Kd [18]: 100 nM

**Q.** For “Elastase inhibitor (from UniProt P16895)”, which Kd [19] is on record?
**A.** 1 nM

**Q.** For “Elastase inhibitor AEI (from UniProt P16895)”, which Ki [20] is on record?
**A.** 1000 nM

**Q.** With Equistatin (from UniProt P81439) as the substance, how does the Ki (Cathepsin L) read?
**A.** 0.051 nM

**Q.** And the Ki (Papain (Carica papaya) [21])?
**A.** 0.57 nM

**Q.** And the Ki (Cathepsin B)?
**A.** 1.4 nM

**Q.** Which Ki (Papain (Carica papaya) [22]) does the source give for “Equistatin N-terminal domain (from UniProt P81439)” here?
**A.** 0.6 nM

**Q.** Which Ki (Cathepsin D) does the source give for “Equistatin second domain (from UniProt P81439)” here?
**A.** 0.3 nM

**Q.** With Jn-IV (from UniProt P16344) as the substance, how does the Kd (Trypsin (Bos taurus) [23]) read?
**A.** 9.6 nM

**Q.** Which Kd (Trypsin (Bos taurus) [24]) does the source give for “Kalicludin-1 (AsKC1) (from UniProt Q9TWG0)” here?
**A.** < 30 nM

**Q.** For “Kalicludin-2 (AsKC2) (from UniProt Q9TWF9)”, which Kd (Trypsin (Bos taurus) [25]) is on record?
**A.** < 30 nM

**Q.** For “Kalicludin-3 (AsKC3) (from UniProt Q9TWF8)”, which Kd (Trypsin (Bos taurus) [26]) is on record?
**A.** < 30 nM

**Q.** For NACI (from UniProt Q5ZPJ7), which Ki [27] is on record?
**A.** 25 nM

**Q.** Which Ki (Trypsin (Bos taurus) [28]) does the source give for OH-TCI (native) (from UniProt B6RLX2) here?
**A.** 170 nM

**Q.** What about the Ki [29] of the same substance?
**A.** 170 nM

**Q.** Which Ki (Trypsin (Bos taurus) [30]) does the source give for PILP-1 (from UniProt B4ESA2) here?
**A.** 55.6 nM

**Q.** For Pr-mulgin 1 (from UniProt E7FL11), which Ki (Metalloprotease 2) is on record?
**A.** 60 nM

**Q.** For SA5 II (from UniProt P10280), which Kd (Trypsin (Bos taurus) [31]) is on record?
**A.** 0.3 nM

**Q.** For ShPI-1 (from UniProt P31713), which Kd [32] is on record?
**A.** 2.3 nM

**Q.** What about the Kd (Plasmin (Homo sapiens) [33]) of the same substance?
**A.** 2.7 nM

**Q.** What about the Kd (Trypsin (Bos taurus) [34]) of the same substance?
**A.** 0.11 nM

**Q.** Which Ki (Plasmin (Homo sapiens) [35]) does the source give for Textilinin-2 (from UniProt Q90WA0) here?
**A.** 2.2 nM

**Q.** Which Kd (Kv1.2) does the source give for Toxin I (from UniProt P00979) here?
**A.** < 20 nM

**Q.** And the Kd (Kv1.6)?
**A.** < 20 nM

**Q.** What about the Kd (Kv1.1) of the same substance?
**A.** < 20 nM

**Q.** With Trypsin inhibitor (from UniProt P20229) as the substance, how does the Ki (Trypsin (Bos taurus) [36]) read?
**A.** 0.0035 nM

**Q.** Which results are given for “Trypsin inhibitor I (from UniProt P00991)”?
**A.** Ki [37]: 270 nM; Ki (Trypsin (Bos taurus) [38]): 0.34 nM

**Q.** Which Kd (Trypsin (Bos taurus) [39]) does the source give for rBmKTT-1 (from UniProt P0DJ49) here?
**A.** 136 nM

**Q.** For rBmKTT-2 (from UniProt P0DJ50), which Kd (Trypsin (Bos taurus) [40]) is on record?
**A.** 420 nM

**Q.** Which Kd (Trypsin (Bos taurus) [41]) does the source give for rHg1 (from UniProt P0C8W3) here?
**A.** 107 nM

**Q.** With rLmKTT-1a (from UniProt P0DJ46) as the substance, how does the Kd (Trypsin (Bos taurus) [42]) read?
**A.** 140 nM

**Q.** For rLmKTT-1b (SdPI) (from UniProt P0DJ45), which Kd (Trypsin (Bos taurus) [43]) is on record?
**A.** 160 nM

**Q.** Which Kd (Trypsin (Bos taurus) [44]) does the source give for rLmKTT-1c (from UniProt P0DJ48) here?
**A.** 124 nM
